Experiments:
[1] = molecular target: T1, HGF (hepatocyte growth factor/scatter factor) (UniProt P14210;P14210 P14210:32-494,P14210:495-728); test: filter; one or two 5' G; no inhibition of HGF in cells without PEG; settings: tags: R&D Systems
Experimental: (§1) In binding reactions, RNA concentrations were kept as low as possible—between 1 and 20 pM—to ensure equilibrium in conditions of protein excess. Oligonucleotides were incubated for 15 minutes at 37° C. with varying amounts of the protein in 43 µl of the binding buffer. Thirty-two microliters of each binding mixture placed on pre-wet 0.45 µm nitrocellulose filters under suction. Each well was immediately washed with 0.5 ml binding buffer. The amount of radioactivity retained on the filters was quantitated by imaging. The radioactivity that bound to filters in the absence of protein was used for background correction. The percentage of input oligonucleotide retained on each filter spot was plotted against the corresponding log protein concentration. The nonlinear least square method was used to obtain the dissociation constant (K_d; reference Jellinek, Lynott et al. 1993, Proc. Natl. Acad. Sci. USA. 90:11227–31).

[2] = molecular target: c-met extracellular domain-IgG1-His6 (Homo sapiens, UniProt P08581 P08581:25-932); test: filter; biphasic; lower affinity Kd ~5 nM; settings: chain copies: 2
[3] = molecular target: T1, HGF (hepatocyte growth factor/scatter …); test: filter; no significant binding retained; settings: tags: R&D Systems
Experimental: as §1

[4] = molecular target: T1, HGF (hepatocyte growth factor/scatter …); test: filter; HBSMC, 37C; SEQ 43 in listing has a deviating 3' end; settings: tags: R&D Systems
Experimental: as §1

[5] = molecular target: T1, HGF (hepatocyte growth factor/scatter …); test: filter; HBSMC, 37C; table cites SEQ 15, which is a template in the listing; settings: tags: R&D Systems
Experimental: as §1

[6] = molecular target: T1, HGF (hepatocyte growth factor/scatter …); test: filter; HBSMC, 37C; worse than random pool; settings: tags: R&D Systems
Experimental: as §1

[7] = molecular target: T1, HGF (hepatocyte growth factor/scatter …); test: filter; HBSMC, 37C; SEQ 108 in listing duplicates SEQ 107, table sequence used; settings: tags: R&D Systems
Experimental: as §1

[8] = molecular target: T1, HGF (hepatocyte growth factor/scatter …); test: filter; 40N8 hitchhiker; settings: tags: R&D Systems
Experimental: as §1

[9] = molecular target: T1, HGF (hepatocyte growth factor/scatter …); test: filter; 36mer; PEGylated form inhibits HGF in cells; settings: tags: R&D Systems
Experimental: as §1

T1 sequence (P14210 32-494, chain 1 of 2): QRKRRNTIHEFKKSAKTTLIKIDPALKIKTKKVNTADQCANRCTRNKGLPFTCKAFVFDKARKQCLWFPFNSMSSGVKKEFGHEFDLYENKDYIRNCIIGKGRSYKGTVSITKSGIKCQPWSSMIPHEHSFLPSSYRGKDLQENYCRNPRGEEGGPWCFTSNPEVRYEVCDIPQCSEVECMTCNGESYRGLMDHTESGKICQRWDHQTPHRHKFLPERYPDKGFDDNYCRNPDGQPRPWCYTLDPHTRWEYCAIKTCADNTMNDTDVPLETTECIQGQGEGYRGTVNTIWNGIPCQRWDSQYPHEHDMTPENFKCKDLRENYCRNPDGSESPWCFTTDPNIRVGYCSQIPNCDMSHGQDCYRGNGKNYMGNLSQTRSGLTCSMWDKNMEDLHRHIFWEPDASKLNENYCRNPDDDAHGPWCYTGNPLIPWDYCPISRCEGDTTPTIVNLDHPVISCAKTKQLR
T1 sequence (P14210 495-728, chain 2 of 2): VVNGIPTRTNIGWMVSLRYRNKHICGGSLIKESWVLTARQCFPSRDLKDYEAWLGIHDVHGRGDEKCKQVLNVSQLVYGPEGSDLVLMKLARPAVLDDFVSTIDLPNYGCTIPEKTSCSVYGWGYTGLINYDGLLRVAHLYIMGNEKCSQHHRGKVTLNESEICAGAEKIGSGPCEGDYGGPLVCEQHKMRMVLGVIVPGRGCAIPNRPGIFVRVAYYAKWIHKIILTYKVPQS
c-met extracellular domain-IgG1-His6, sequence (P08581 25-932, one chain of several): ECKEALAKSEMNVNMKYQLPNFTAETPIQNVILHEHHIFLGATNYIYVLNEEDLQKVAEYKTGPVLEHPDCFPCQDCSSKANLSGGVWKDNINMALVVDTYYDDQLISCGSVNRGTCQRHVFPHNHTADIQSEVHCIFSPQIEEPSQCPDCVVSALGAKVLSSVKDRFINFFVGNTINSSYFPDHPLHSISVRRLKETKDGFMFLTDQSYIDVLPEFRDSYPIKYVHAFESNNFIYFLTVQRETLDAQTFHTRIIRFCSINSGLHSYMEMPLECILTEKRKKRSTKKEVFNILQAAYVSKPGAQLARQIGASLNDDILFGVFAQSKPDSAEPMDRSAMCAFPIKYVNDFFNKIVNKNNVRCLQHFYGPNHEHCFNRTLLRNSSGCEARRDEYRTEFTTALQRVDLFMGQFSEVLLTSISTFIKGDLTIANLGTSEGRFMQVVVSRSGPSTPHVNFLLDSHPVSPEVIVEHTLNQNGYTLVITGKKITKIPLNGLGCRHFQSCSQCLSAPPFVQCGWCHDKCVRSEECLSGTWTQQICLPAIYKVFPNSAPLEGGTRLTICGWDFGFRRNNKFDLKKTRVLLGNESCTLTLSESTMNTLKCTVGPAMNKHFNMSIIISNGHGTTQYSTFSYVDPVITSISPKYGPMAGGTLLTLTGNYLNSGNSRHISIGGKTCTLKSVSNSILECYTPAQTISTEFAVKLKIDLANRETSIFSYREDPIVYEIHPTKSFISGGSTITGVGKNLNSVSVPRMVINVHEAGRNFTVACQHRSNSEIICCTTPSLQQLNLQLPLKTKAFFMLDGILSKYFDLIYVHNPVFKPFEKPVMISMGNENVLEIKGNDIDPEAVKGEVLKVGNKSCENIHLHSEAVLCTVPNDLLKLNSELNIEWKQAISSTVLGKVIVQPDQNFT

Binder: GGAAUCACAGGAAUCAACUUCUAUUCCCGCCCCA (ssRNA, 2'-F pyrimidines) [Tr51]
- Kd [1]: 0.06 nM

B1: 7c-1 (ssRNA)
RNA: GGGAGGACGAUGCGGUUUGACUAUGUCUGACGGGUCUGUGGUCAAUUCCGCCCCCAGACGACUCGCCCGA
modifications: 2'-F pyrimidines
- Kd [2]: ~0.05 nM

Binder: GGACGAUGCGGGCGGCUCGAUGUCGUCU (ssRNA, 2'-F pyrimidines) [8-17 28mer]
- binding result [3]: no binding

Binder: GGGAGGACGAUGCGGGCGGCUCGAUGUCGUCUUAUCCC (ssRNA, 2'-F pyrimidines) [8-17 38mer]
- binding result [3]: no binding

B2: 11-106 (ssRNA)
RNA: GGGAGGACGAUGCGGCGAUGAUGCCUGUUUAUGUCGAUGUCCCCCCAGACGACUCGCCCGA
modifications: 2'-F pyrimidines
- Kd [4]: 0.12 nM

B3: 8-117 (ssRNA)
RNA: GGGAGGACGAUGCGGUCCCAAGUUUCAGGGCGUUUCUUCCUCGUCCAGACGACUCGCCCGA
modifications: 2'-F pyrimidines
- Kd [5]: 0.13 nM

B4: 8-151 (ssRNA)
RNA: GGGAGGACGAUGCGGAGGACUAAUCCCUAAGGAAUAGCUUGCCCGCAGACGACUCGCCCGA
modifications: 2'-F pyrimidines
- Kd [6]: 8 nM

B5: 10-17 (ssRNA)
RNA: GGGAGAUAAGAAUAAACGCUCAAAACCCUGUUGGCGUGACGUCCCGACCCUCCUUCGACAGGAGGCUCACAACAGGC
modifications: 2'-F pyrimidines
- Kd [7]: 0.56 nM

B6: 10-35 (ssRNA)
RNA: GGGAGAUAAGAAUAAACGCUCAAAUCCAAAUUCUGGUCAUGAGGCGCUGCAGAUACUGCUGCGUUCGACAGGAGGCUCACAACAGGC
modifications: 2'-F pyrimidines
- Kd [8]: 2.33 nM

B7: 10-38 (ssRNA)
RNA: GGGAGAUAAGAAUAAACGCUCAAUCUGCGGACGGUGAGGUUAAGUUGCAACGACUGCUUGGCGUUCGACAGGAGGCUCACAACAGGC
modifications: 2'-F pyrimidines
- Kd [8]: 7.38 nM

B8: 10-56 (ssRNA)
RNA: GGGAGAUAAGAAUAAACGCUCAACCUUAGGGCUCCCAAAAAUCGGGCCCGUCGGGCCGAUCACUUCGACAGGAGGCUCACAACAGGC
modifications: 2'-F pyrimidines
- Kd [8]: 0.28 nM

B9: 10-68 (ssRNA)
RNA: GGGAGAUAAGAAUAAACGCUCAACGCGGGAUUCUCUGAGGACGAGGCACGUGUGGGUAAUUCGUUCGACAGGAGGCUCACAACAGGC
modifications: 2'-F pyrimidines
- Kd [8]: 1 nM

B10: 10-67 (ssRNA)
RNA: GGGAGAUAAGAAUAAACGCUCAAUCGGGCUUGGAUGUGGACGUGUAUUUCUAGCUGUGUACGCUUCGACAGGAGGCUCACAACAGGC
modifications: 2'-F pyrimidines
- Kd [8]: 0.64 nM

B11: 10-4 (ssRNA)
RNA: GGGAGAUAAGAAUAAACGCUCAAUUGGGUCGGGACUCGAAAGGAUUUGAUAGGAUACAUGAAUUUCGACAGGAGGCUCACAACAGGC
modifications: 2'-F pyrimidines
- Kd [8]: 0.61 nM

Binder: GGACGAUGCGGCGAGUGCCUGUUUAUGUCAUCGUCC (ssRNA, 2'-F pyrimidines; NX22354 formulation carries 5'-40K PEG and 3'-dT cap) [NX22354 (36mer of 8-102)]
- Kd [9]: 0.1 nM

Reference: patent US6344321, “Nucleic acid ligands which bind to hepatocyte growth factor/scatter factor (HGF/SF) or its receptor c-met” (Gilead Sciences, Inc.)
